This data set concerns the target T1, La (LARP3), native (human, UniProt P05455 1-408).
T1 sequence: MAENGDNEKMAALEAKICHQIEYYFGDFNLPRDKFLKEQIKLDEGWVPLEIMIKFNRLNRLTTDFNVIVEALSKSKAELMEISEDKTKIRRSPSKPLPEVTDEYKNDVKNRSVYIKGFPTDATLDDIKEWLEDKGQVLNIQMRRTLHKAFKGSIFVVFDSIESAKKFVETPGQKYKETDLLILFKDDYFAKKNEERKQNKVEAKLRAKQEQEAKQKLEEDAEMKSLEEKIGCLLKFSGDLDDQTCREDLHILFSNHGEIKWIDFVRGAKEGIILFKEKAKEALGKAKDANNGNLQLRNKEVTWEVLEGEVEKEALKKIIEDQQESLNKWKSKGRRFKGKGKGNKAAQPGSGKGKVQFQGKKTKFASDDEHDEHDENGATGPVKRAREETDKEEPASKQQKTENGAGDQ
As to the kind of experiment: EMSA; most RNA (22 nM) bound at 200-400 nM La; titration 6-700 nM; L37/L22 EMSA: 1x binding buffer (from 2x: 3 mM MgCl2, 300 mM NaCl, 1 mM EDTA, 0.1% Nonidet P-40), i.e. 1.5 mM MgCl2, 150 mM NaCl, 0.5 mM EDTA, 0.05% NP-40; pH not stated; 22 nM RNA, 40 ul, 10 min at room temperature; native 10% PAGE in TBE. CCND1 EMSA as in ref 42. The note with it: protein: recombinant; tags: His6; label: 3'-Cy3; weak secondary structure. (In general: A gel shift assay detects complexes by their altered migration in electrophoresis.)

In the case of UUCCGGUCUCUUUGGCCUCGCCGGUAGAAGCAAGAUG (ssRNA) [L37 TOP RNA], the binding result is “binds”.

Regarding CUCCUCUGCCGCCAUGGCUCCUGUGAAAAAGCUUGUG (ssRNA) [L22 TOP RNA], the binding result is “binds”.

(Values after publication PMC4880191, “SUMO-Modification of the La Protein Facilitates Binding to mRNA In Vitro and in Cells”.)
